Data on 5 substances can be found in patent US7501496.

Assay [1] has as its target activated C3c (generated via activation of C3, from human pooled serum) (human) (UniProt P01024). Description: cell-based or functional assay.
Assay [2] concerns the target complement factor C1q (recombinant C1q) (human) (UniProt P02745). Description: ELISA; coated antibody, recombinant C1q, maximum binding at 10 µg/ml.
For assay [3] the target is unchanged. Briefly: ELISA; plate coated with serially diluted antibody, recombinant C1q added, anti-C1q detection.
The target of assay [4] is human OX40L expressed on cells (K562-hOX40L cells; HUVEC) (human) (UniProt P23510). Briefly: FACS on HUVEC; <KLH> 10 µg/ml 24 h, no staining antibody, secondary anti-human IgG-Alexa488 (media control 5.39).
The target is the same in assay [5]. Briefly: FACS on HUVEC; <KLH> 10 µg/ml 2.5 h, no staining antibody, secondary anti-human IgG-Alexa488 (media control 5.17).
Assay [6] has the same target. Description: cell-based or functional assay.
For assay [7] the target is unchanged. Briefly: flow cytometry on K562-hOX40L cells, FITC rabbit anti-mouse IgG.
Assay [8] shares this target. Briefly: FACS on HUVEC; <KLH> 24 h, then staining with TAG-34, secondary anti-murine IgG-Alexa488.
The target is the same in assay [9]. Briefly: FACS on HUVEC; <KLH> 2.5 h, then staining with TAG-34, secondary anti-murine IgG-Alexa488.
The target is the same in assay [10]. Description: FACS on HUVEC; media control 24 h, then staining with TAG-34, secondary anti-murine IgG-Alexa488.
The target in assay [11] is Recombinant soluble human OX40L fused to a Histidine tag (human) (UniProt P23510). Briefly: SPR, Biacore 3000; antibody captured via anti-Fcγ on CM5, hOX40L-His as analyte, 1:1 Langmuir fit.
The target of assay [12] is human OX40L expressed on cells (K562-hOX40L cells; HUVEC) (human) (UniProt P23510). Description: FACS on HUVEC; media control 2.5 h, then staining with TAG-34, secondary anti-murine IgG-Alexa488.
The target of assay [13] is Recombinant soluble human OX40L fused to a Histidine tag (human) (UniProt P23510). Description: SPR competition; hOX40L-His (10 nM) preincubated with antibody (0.78-100 nM), injected over immobilized OX40-hFc.
Assay [14] deals with human OX40L expressed on cells (K562-hOX40L cells; HUVEC) (human) (UniProt P23510). Briefly: FACS on HUVEC; TAG-34 10 µg/ml 24 h, no restaining, secondary anti-murine IgG-Alexa488 (down-modulation of hOX40L).
For assay [15] the target is unchanged. Description: FACS on HUVEC; TAG-34 10 µg/ml 2.5 h, no restaining, secondary anti-murine IgG-Alexa488 (down-modulation of hOX40L).
For assay [16] the target is unchanged. Description: FACS on HUVEC; TAG34 10 µg/ml 24 h, restaining with TAG-34, secondary anti-murine IgG-Alexa488 (down-modulation of hOX40L).
Assay [17] has the same target. Briefly: FACS on HUVEC; TAG34 10 µg/ml 2.5 h, restaining with TAG-34, secondary anti-murine IgG-Alexa488 (down-modulation of hOX40L).
Assay [18] shares this target. Description: blocking FACS on K562_OX40L cells: antibody as competitor, blocked ligand Dig-labelled hOX40:hFc, read with anti-digoxigenin-fluorescein.
Assay [19] deals with human FcγRIIa on stably transfected IIA1.6 cells (human) (UniProt P12318). Description: flow cytometry on IIA1.6 cells with human FcγRIIa, maximum binding at 10 µg/ml.
Assay [20] deals with human FcγRIIb on stably transfected IIA1.6 cells (human) (UniProt P31994). Description: flow cytometry on IIA1.6 cells with human FcγRIIb, maximum binding at 10 µg/ml.
Chain of human FcγRIIb on stably transfected IIA1.6 cells (human) (P31994 43-310): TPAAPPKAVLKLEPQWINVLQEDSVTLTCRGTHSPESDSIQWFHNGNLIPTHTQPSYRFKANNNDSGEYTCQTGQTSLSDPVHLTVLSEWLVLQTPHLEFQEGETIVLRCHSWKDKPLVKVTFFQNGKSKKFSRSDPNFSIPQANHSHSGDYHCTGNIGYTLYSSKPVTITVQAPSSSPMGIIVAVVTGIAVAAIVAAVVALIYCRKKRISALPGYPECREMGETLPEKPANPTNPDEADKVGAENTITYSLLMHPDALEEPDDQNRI

Chain of activated C3c (generated via activation of C3, from human pooled serum) (human) (P01024 23-1663 limits assumed): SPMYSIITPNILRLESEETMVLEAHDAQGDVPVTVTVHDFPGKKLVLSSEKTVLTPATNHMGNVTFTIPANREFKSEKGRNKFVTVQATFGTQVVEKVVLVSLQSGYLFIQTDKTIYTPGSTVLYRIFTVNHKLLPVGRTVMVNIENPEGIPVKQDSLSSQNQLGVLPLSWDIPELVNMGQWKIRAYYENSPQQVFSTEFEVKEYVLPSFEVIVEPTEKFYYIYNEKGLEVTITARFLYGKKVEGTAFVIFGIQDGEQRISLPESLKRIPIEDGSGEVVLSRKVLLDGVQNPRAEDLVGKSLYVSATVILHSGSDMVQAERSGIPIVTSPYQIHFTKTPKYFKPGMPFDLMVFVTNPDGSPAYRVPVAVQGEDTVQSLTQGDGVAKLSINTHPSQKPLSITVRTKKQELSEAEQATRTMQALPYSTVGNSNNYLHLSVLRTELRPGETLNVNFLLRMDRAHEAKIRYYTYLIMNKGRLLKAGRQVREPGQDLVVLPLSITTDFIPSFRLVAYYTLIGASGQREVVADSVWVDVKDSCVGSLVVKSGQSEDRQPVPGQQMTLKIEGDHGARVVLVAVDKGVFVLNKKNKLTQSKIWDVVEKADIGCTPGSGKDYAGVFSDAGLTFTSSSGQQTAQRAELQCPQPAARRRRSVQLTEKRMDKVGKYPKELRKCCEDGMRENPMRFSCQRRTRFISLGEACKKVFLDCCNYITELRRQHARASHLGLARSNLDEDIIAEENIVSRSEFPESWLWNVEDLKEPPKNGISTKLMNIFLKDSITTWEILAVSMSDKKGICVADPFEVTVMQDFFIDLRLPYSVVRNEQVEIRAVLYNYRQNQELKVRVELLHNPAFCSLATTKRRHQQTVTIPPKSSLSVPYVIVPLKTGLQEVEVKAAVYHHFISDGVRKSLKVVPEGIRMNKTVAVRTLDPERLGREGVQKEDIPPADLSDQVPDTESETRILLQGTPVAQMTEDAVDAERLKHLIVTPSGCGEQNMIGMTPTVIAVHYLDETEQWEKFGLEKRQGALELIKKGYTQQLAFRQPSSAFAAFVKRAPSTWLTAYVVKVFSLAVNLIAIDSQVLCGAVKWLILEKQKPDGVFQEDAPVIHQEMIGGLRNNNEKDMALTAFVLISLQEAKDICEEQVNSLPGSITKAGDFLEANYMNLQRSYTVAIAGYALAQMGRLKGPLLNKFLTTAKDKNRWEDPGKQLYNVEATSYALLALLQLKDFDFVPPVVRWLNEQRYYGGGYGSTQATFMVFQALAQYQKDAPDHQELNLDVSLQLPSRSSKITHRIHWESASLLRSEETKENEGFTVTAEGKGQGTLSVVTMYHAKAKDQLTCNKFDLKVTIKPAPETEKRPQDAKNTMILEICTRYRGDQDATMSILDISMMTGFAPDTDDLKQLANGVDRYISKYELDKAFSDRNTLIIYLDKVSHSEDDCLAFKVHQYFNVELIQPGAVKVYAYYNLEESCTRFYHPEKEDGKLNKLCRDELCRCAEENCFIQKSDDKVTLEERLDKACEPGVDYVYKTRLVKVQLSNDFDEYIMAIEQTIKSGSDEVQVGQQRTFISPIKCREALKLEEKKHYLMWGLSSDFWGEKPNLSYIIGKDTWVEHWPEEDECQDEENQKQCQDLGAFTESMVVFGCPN
Chain of complement factor C1q (recombinant C1q) (human) (P02745 23-245 limits assumed, chain 1 of 3): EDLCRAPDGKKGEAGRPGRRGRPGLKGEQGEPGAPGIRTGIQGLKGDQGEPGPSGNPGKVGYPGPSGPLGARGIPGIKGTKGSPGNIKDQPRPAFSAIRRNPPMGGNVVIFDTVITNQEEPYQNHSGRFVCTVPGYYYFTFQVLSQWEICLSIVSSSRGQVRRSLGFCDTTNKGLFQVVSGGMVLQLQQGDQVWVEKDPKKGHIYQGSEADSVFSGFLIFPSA
Chain of complement factor C1q (recombinant C1q) (human) (P02746 28-253 limits assumed, chain 2 of 3, further chain): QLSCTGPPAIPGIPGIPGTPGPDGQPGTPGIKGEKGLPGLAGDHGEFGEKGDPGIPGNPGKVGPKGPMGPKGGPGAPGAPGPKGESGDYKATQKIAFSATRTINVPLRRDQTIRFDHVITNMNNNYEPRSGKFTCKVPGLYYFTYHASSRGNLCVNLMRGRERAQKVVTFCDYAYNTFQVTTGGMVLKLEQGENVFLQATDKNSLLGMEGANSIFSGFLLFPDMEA
Chain of complement factor C1q (recombinant C1q) (human) (P02747 29-245 limits assumed, chain 3 of 3, further chain): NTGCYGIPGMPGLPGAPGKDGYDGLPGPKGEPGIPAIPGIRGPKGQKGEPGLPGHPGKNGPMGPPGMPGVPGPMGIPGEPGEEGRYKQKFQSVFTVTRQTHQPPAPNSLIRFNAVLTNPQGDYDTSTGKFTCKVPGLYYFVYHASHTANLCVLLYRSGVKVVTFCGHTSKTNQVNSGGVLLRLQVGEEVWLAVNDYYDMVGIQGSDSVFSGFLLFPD
Chain of Recombinant soluble human OX40L fused to a Histidine tag (human) (P23510 51-183): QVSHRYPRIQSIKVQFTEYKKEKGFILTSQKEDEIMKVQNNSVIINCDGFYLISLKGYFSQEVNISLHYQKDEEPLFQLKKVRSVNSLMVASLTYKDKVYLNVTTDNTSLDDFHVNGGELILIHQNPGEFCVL
Chain of human OX40L expressed on cells (K562-hOX40L cells; HUVEC) (human) (P23510 whole entry, the tested form may be a part): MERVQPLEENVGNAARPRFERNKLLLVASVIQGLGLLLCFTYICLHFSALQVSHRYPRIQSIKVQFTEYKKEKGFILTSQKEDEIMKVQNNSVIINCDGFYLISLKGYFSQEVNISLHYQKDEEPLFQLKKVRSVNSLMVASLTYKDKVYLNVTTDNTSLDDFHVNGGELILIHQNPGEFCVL
Chain of human FcγRIIa on stably transfected IIA1.6 cells (human) (P12318 34-317): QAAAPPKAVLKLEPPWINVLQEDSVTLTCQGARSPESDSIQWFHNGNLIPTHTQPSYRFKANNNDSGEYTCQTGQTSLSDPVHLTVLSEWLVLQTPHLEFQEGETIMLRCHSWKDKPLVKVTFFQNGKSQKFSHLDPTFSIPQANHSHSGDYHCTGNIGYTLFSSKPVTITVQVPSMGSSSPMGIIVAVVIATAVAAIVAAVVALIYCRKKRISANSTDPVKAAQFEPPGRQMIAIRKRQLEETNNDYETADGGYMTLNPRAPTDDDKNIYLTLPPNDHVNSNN

“HuMab antibody directed against Keyhole Limpet Hemocyanin (alpha-KLH)”: in assay [1], the C3c deposition ELISA, Bmax (OD405) was found to be 2.63 OD405 and the C3c deposition ELISA, EC50 is 2.16 µg/mL. In addition, the Bmax (OD405) in [2] worked out at 3.31 OD405. In [3], the EC50 was 2.57 µg/mL. This substance displayed an MFI in [4] of 4.74 MFI. Also, the MFI in assay [5] turned out to be 4.76 MFI.
In assay [1], “Human IgG1 (The Binding Site), control antibody” displayed a C3c deposition ELISA, Bmax (OD405) of 2.54 OD405 and a C3c deposition ELISA, EC50 of 5.45 µg/mL. Moreover, the Bmax (OD405) in [2] is 2.69 OD405. Also, in [3], the EC50 was determined as 4.17 µg/mL.
Take “TAG34, anti-human OX40L monoclonal antibody”: in [6], the IC50, IL-2 release of PHA-activated PBL co-stimulated with K562 OX40L cells was determined as 70 nM. This substance returned an EC50 (read off the curve) in [7] of 2 µg/mL. Besides, the MFI in assay [8] turned out to be 31.6 MFI; in [9], 30.8 MFI; in [10], 25.3 MFI; in [12] it was 31.8 MFI; in [14], 7.39 MFI; in assay [15], 9.44 MFI. The MFI in [16] came out at 14.9 MFI; in [17] it was 8.97 MFI. In assay [11], the Kd turned out to be 0.375 nM. Besides, in assay [11], the koff was determined as 3.32e-05 s⁻¹. For the same substance, the kon in assay [11] worked out at 88400 M⁻¹ s⁻¹. Besides, in assay [13], the IC50 was determined as 7 nM. Further, in assay [18], the IC50 (read off the curve) came out at 1 µg/mL.
Consider “human IgG3 (The Binding Site), control antibody”, for which the Bmax (MFI) in [19] is 537 MFI; in assay [20], 419 MFI.
The substance “human IgG4 (The Binding Site), control antibody” returned a C3c deposition ELISA, Bmax (OD405) in assay [1] of 0.095 OD405. The Bmax (OD405) in [2] was determined as 0.353 OD405.
